How the values were obtained:
PKC-theta = biological target: T1, PKC-theta (Homo sapiens, UniProt Q04759); test: In vitro kinase assay: peptide phosphorylation by PKC-theta; type: biochemical; conditions: for PKC theta phosphorylation: normalized to best substrate
T1 construct: His-tag; made in house; host or cells: baculovirus-infected Sf9 cells
Method in brief: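 Recombinant human PKC-theta, expressed in baculovirus-infected Sf9 cells and purified on a nickel chelating column, was incubated with biotinylated peptides, 100 μM ATP containing ^32P-gamma ATP, and PKC buffer with CaCl2, MgCl2, phosphatidyl serine and PMA at 30° C. Reactions were stopped with ATP/EDTA. Peptides were captured on streptavidin-coated plates, and phosphorylation was normalized to the best substrate.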

PKC-alpha = biological target: T2, PKC-alpha (Homo sapiens, UniProt P17252); test: In vitro kinase assay: peptide phosphorylation by PKC-alpha; type: biochemical; conditions: for PKC alpha phosphorylation: normalized to best substrate
T2 construct: purchased Calbiochem
Method: Catalytically active preparations of the kinases of interest were either purchased or prepared. Purchased and tested active kinase preparations including the following: PKC-alpha, PKC-delta, PKC-epsilon, PKC-zeta, PKC-mu, PKA, PKG from Calbiochem, ROK alpha/ROCK-II, active from Upstate Biotechnology, and AKT1 from Panvera.
The conditions of the kinase assay and the amount of active kinase used varied with the kinase and with the accuracy needed. For a typical experiment, 5-20 ng of kinase was used per well and each peptide pool was assayed in duplicate wells. Note that the absolute amount of kinase used was not usually a critical parameter, because the desired information related to specificity of the kinase not its absolute activity, and robustness of the assay depends on comparisons of the same amount of kinase on different peptides. The combination of kinase concentration and assay duration was modified to assure that the stoichiometry of peptide phosphorylation never exceeded 5%. The choice of kinase buffer depended on the kinase being analyzed. For studies of PKC, 100 mM HEPES, 0.05% Triton-X100, 1 mM CaCl2, 20 mM MgCl2, 0.2 mg/ml phosphatidyl serine (Avanti Polar Lipids), PMA 100 ng/ml was typically used. The lipid stock was prepared by transferring 3 mg phosphatidyl serine into iced mixture of 450 μl water plus 50 μl of 10% Triton-X100, sonicating 10 times on ice for 1 sec each.
The kinase reaction mixture was assembled by sequential addition to a tube held on ice of: 5 μl peptide (100 μM for final concentration of 10 μM), 15 μl of kinase (typically 5 ng/well, in appropriate kinase buffer), 30 μl of ATP (1 uCi/well of ^32P-gamma ATP in a stock of 167 μM cold ATP in the kinase buffer; for final concentration for 100 μM ATP). The mixture was rapidly warmed to desired reaction temperature (30° C. for PKC) and incubated for the desired duration (usually 10 minutes). The kinase assay was terminated by transfer to 4° C. water batch, and rapid addition of an equal volume (50 μl) of stop solution [0.1M ATP+0.1M EDTA in water, pH 8].
The peptides were then captured from the reaction mixture by transfer to a Reacti-Bind Streptavidin High Binding Capacity Coated Plates (HBC) (Pierce Biotechnology) as follows. The HBC plates were pre-rinsed three times with PBS/Tween PBS/Tween20 0.05% (PBS/Tween). Part of all of the reaction mixture was then transferred wells of a HBC plate pre-filled with 90 μl of phosphate-buffered saline (PBS); typically each aliquots of each phosphorylation reaction were transferred to duplicate HBC plates to assure accuracy by additional replication
For kinase assays done at the standard peptide concentration of 10 μM, the peptide concentration in the reaction mixture becomes 5 μM after addition of the stop solution; consequently 10 μl of the reaction (50 pMoles of peptide) was transferred to the HBC plate. More generally, the amount of reaction mixture transferred was estimated to be about 50 pMoles of peptide. […] The HBC plates were incubated for 0.5 to 1.5 hr at room temperature for complete binding of biotinylated peptides to plate-bound streptavidin. The HBC plates were then washed extensively with PBS/Tween. Five washes were done routinely and additional wash steps were added if the wash solution removed from the plate had measurable radioactivity as detected using a Geiger counter. This step is essential to obtaining a good the signal to noise ratio because the fraction of radioactivity incorporated in the peptides was a tiny fraction of the total in the reaction mixture. The wells were air-dried. A volume of 40-50 μl of microScint-20 (Packard Instruments) was added to each well. The plates were covered with stick-on film sheet. Radioactive emissions were measured in a TopCount NXT Microplate Scintillation and Luminescence Counter (Packard Instruments). Typically samples were counted for 5 minutes (or more) to improve the signal to noise ratio when counts were low. […]

T1 sequence (Q04759 whole entry): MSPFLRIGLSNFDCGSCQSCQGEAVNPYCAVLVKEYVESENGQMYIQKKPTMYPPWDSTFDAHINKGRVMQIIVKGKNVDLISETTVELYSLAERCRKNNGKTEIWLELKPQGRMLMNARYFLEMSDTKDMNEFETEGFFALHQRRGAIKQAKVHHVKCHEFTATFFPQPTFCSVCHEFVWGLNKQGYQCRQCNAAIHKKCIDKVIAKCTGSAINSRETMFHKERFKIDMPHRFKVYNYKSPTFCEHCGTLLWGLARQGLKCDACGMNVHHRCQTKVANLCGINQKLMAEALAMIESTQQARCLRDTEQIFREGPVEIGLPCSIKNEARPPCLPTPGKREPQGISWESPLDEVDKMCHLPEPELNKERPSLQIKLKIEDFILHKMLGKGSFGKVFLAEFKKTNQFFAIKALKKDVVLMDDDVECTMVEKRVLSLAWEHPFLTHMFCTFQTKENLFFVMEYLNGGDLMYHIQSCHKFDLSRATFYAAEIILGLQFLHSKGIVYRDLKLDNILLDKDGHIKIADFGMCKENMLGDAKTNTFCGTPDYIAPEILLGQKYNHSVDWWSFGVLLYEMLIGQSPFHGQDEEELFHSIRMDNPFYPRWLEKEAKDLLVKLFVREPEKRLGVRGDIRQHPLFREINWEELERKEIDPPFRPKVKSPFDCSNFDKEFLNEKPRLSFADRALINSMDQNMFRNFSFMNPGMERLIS

Substance | PKC theta phosphorylation (PKC-theta) [%] | PKC alpha phosphorylation (PKC-alpha) [%] | phosphorylation by PKC theta (PKC-theta; peptide concentration 1 uM) | phosphorylation by PKC theta (PKC-theta; peptide concentration 10 uM) | phosphorylation by PKC alpha (PKC-alpha; peptide concentration 1 uM) | phosphorylation by PKC alpha (PKC-alpha; peptide concentration 10 uM)
95 (KKKFRTPSFLKKSKK) [compound 95] | 42 | 34 | – | – | – | –
147 (RDIRQSPKRGFLRSASLGRR) [compound 147] | – | – | 20 | 69 | 13 | 16
117 (NRKKKRTSFKRKA) [compound 117] | – | – | 84 | 78 | 40 | 39
79 (NRKKKRTSFKRKA) [compound 79] | 33 | 50 | – | – | – | –
124 (PRLIRRGSKKRPAR) [compound 124] | – | – | 53 | 57 | 48 | 24
138 (EYLERRASRRRAV) [compound 138] | – | – | 34 | 39 | 17 | 20

From US20050064507A1, “Determining kinase specificity” (priority 2003, published 2005)
